Laboratory results published in patent US20240352096A1 (KANGLIN BIOTECHNOLOGY HANGZHOU, published 2024).

Legend:
Assay in all cases: cell-based or functional assay
[1] = molecular target: T1, HIV-1 envelope protein of HIV-1 strain pNL4-3 (CXCR4 tropism) (HIV-1 strain pNL4-3)
[2] = molecular target: T2, HIV-1 envelope protein of HIV-1 strain pAD-8 (CCR5 tropism) (HIV-1 strain pAD-8)
[3] = molecular target: T1, HIV-1 envelope protein of HIV-1 strain …; remark: listed apart in the source
[4] = molecular target: T2, HIV-1 envelope protein of HIV-1 strain …; remark: listed apart in the source
[5] = molecular target: T1, HIV-1 envelope protein of HIV-1 strain …; remark: listed apart in the source
[6] = molecular target: T2, HIV-1 envelope protein of HIV-1 strain …; remark: listed apart in the source

Binder | Neutralization percentage; AAV vector-transduced C2C12 supernatant, antibody concentration 2.5 ng/ml; TZM-bl luciferase [1] [%] | Neutralization percentage; AAV vector-transduced C2C12 supernatant, antibody concentration 5 ng/ml; TZM-bl luciferase [1] [%] | Neutralization percentage; AAV vector-transduced C2C12 supernatant, antibody concentration 10 ng/ml; TZM-bl luciferase [1] [%] | Neutralization percentage; AAV vector-transduced C2C12 supernatant, antibody concentration 2.5 ng/ml; TZM-bl luciferase [2] [%] | Neutralization percentage; AAV vector-transduced C2C12 supernatant, antibody concentration 5 ng/ml; TZM-bl luciferase [2] [%] | Neutralization percentage; AAV vector-transduced C2C12 supernatant, antibody concentration 10 ng/ml; TZM-bl luciferase [2] [%] | Neutralization percentage; serum of mice injected with AAV vector, serum stock volume 0.005 uL; TZM-bl luciferase [3] [%] | Neutralization percentage; serum of mice injected with AAV vector, serum stock volume 0.05 uL; TZM-bl luciferase [3] [%] | Neutralization percentage; serum of mice injected with AAV vector, serum stock volume 0.5 uL; TZM-bl luciferase [3] [%] | Neutralization percentage; serum of mice injected with AAV vector, serum stock volume 0.005 uL; TZM-bl luciferase [4] [%] | Neutralization percentage; serum of mice injected with AAV vector, serum stock volume 0.05 uL; TZM-bl luciferase [4] [%] | Neutralization percentage; serum of mice injected with AAV vector, serum stock volume 0.5 uL; TZM-bl luciferase [4] [%] | IC50 for neutralizing HIV-1 strain pNL4-3 (CXCR4 tropism); purified antibody, TZM-bl luciferase [5] [pM] | IC50 for neutralizing HIV-1 strain pAD-8 (CCR5 tropism); purified antibody, TZM-bl luciferase [6] [pM]
Anti-HIV amphotropic neutralizing antibody-like molecule KL-BsHIV01-02 (bispecific antibody) SELTQDPAVSVALKQTVTITCRGDSLRSHYASWYQKKPGQAPVLLFYGKNNRPSGIPDRFSGSASGNRASLTITGAQAEDEADYYCSSRDKSGSRLSVFGGGTKLTVLGGGGSGGGGSGGGGSEVRLRESGGGLVKPGGSLRLSCSASGFDFDNAWMTWVRQPPGKGLEWVGRITGPGEGWSVDYAESVKGRFTISRDNTKNTLYLEMNNVRTEDTGYYFCARTGKYYDFWFGYPPGEEYFQDWGQGTLVIVSSGGGGSGGGGSGGGGSGGGGSGGGGSDIVMTQSPDSLAVSLGERVTMNCKSSQSLLYSTNQKNYLAWYQQKPGQSPKLLIYWASTRESGVPDRFSGSGSGTDFTLTISSVQAEDVAVYYCQQYYSYRTFGGGTKLEIKRTVAGGGGSGGGGSGGGGSQVQLQQSGPEVVKPGASVKMSCKASGYTFTSYVIHWVRQKPGQGLDWIGYINPYNDGTDYDEKFKGKATLTSDTSTSTAYMELSSLRSEDTAVYYCAREKDNYATGAWFAYWGQGTLVTVSS | 100 | 101 | 100 | 100 | 100 | 100 | 27.7 | 79 | 100 | -15.7 | -4.43 | 81.7 |  | 
Anti-HIV tritropic neutralizing antibody-like molecule KL-BsHIV01-003-02 (other) SELTQDPAVSVALKQTVTITCRGDSLRSHYASWYQKKPGQAPVLLFYGKNNRPSGIPDRFSGSASGNRASLTITGAQAEDEADYYCSSRDKSGSRLSVFGGGTKLTVLGGGGSGGGGSGGGGSEVRLRESGGGLVKPGGSLRLSCSASGFDFDNAWMTWVRQPPGKGLEWVGRITGPGEGWSVDYAESVKGRFTISRDNTKNTLYLEMNNVRTEDTGYYFCARTGKYYDFWFGYPPGEEYFQDWGQGTLVIVSSGGGGSGGGGSGGGGSGGGGSGGGGSDIVMTQSPDSLAVSLGERVTMNCKSSQSLLYSTNQKNYLAWYQQKPGQSPKLLIYWASTRESGVPDRFSGSGSGTDFTLTISSVQAEDVAVYYCQQYYSYRTFGGGTKLEIKRTVAGGGGSGGGGSGGGGSQVQLQQSGPEVVKPGASVKMSCKASGYTFTSYVIHWVRQKPGQGLDWIGYINPYNDGTDYDEKFKGKATLTSDTSTSTAYMELSSLRSEDTAVYYCAREKDNYATGAWFAYWGQGTLVTVSSGGGGSGGGGSGGGGSGGGGSGGGGSWEQKIEELLKKAEEQQKKNEEELKKLEK | 101 | 101 | 100 | 100 | 100 | 100 | 23.4 | 56.7 | 99.4 | -11.7 | -6.85 | 62.5 | 0.2 | 3.1
